Laboratory results reported in IntAct's records for PubMed 16227972.

B1: Gigaxonin (Homo sapiens), Q9H2C0 (parent)
chain: MAEGSAVSDPQHAARLLRALSSFREESRFCDAHLVLDGEEIPVQKNILAAASPYIRTKLNYNPPKDDGSTYKIELEGISVMVMREILDYIFSGQIRLNEDTIQDVVQAADLLLLTDLKTLCCEFLEGCIAAENCIGIRDFALHYCLHHVHYLATEYLETHFRDVSSTEEFLELSPQKLKEVISLEKLNVGNERYVFEAVIRWIAHDTEIRKVHMKDVMSALWVSGLDSSYLREQMLNEPLVREIVKECSNIPLSQPQQGEAMLANFKPRGYSECIVTVGGEERVSRKPTAAMRCMCPLYDPNRQLWIELAPLSMPRINHGVLSAEGFLFVFGGQDENKQTLSSGEKYDPDANTWTALPPMNEARHNFGIVEIDGMLYILGGEDGEKELISMECYDIYSKTWTKQPDLTMVRKIGCYAAMKKKIYAMGGGSYGKLFESVECYDPRTQQWTAICPLKERRFGAVACGVAMELYVFGGVRSREDAQGSEMVTCKSEFYHDEFKRWIYLNDQNLCIPASSSFVYGAVPIGASIYVIGDLDTGTNYDYVREFKRSTGTWHHTKPLLPSDLRRTGCAALRIANCKLFRLQLQQGLFRIRVHSP

Variants of: B1
Settings: with uba1_human UBA1, P22314
uba1_human UBA1, P22314, sequence (P22314 whole entry): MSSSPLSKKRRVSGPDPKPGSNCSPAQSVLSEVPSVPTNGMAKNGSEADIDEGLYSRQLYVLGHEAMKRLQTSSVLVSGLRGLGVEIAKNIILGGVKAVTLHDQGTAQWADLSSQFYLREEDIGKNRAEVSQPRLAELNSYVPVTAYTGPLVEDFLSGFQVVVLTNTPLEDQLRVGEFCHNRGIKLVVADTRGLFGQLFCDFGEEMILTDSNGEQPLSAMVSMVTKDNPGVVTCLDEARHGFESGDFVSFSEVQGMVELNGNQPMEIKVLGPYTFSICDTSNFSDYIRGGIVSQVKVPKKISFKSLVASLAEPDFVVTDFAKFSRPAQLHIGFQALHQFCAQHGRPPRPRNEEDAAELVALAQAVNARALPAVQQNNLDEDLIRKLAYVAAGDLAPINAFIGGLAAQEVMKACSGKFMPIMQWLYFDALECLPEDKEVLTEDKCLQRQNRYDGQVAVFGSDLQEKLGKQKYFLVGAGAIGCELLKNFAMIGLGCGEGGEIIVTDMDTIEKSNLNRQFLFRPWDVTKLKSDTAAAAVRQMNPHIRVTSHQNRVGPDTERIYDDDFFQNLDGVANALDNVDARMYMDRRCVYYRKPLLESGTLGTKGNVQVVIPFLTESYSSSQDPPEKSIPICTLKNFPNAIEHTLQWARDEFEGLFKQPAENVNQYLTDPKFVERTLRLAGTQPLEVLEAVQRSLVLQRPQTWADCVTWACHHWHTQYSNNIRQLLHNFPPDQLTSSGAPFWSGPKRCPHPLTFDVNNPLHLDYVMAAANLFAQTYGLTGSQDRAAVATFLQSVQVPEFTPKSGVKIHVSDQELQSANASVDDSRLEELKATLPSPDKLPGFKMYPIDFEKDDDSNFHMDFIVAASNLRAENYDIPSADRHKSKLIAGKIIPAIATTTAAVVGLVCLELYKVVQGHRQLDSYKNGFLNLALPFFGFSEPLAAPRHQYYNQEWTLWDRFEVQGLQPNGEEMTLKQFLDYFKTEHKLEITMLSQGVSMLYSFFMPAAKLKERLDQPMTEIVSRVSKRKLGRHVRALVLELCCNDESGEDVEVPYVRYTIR

| effect of a mutation on the interaction | Variant |
| --- | --- |
| decreasing interaction | MAEGSAVSDPQHAARLLRALSSFREESRFCDAHLVLDGEEIPVQKNILAAASPYIRTKLNYNPPKDDGSTYKIELEGISVMFMREILDYIFSGQIRLNEDTIQDVVQAADLLLLTDLKTLCCEFLEGCIAAENCIGIRDFALHYCLHHVHYLATEYLETHFRDVSSTEEFLELSPQKLKEVISLEKLNVGNERYVFEAVIRWIAHDTEIRKVHMKDVMSALWVSGLDSSYLREQMLNEPLVREIVKECSNIPLSQPQQGEAMLANFKPRGYSECIVTVGGEERVSRKPTAAMRCMCPLYDPNRQLWIELAPLSMPRINHGVLSAEGFLFVFGGQDENKQTLSSGEKYDPDANTWTALPPMNEARHNFGIVEIDGMLYILGGEDGEKELISMECYDIYSKTWTKQPDLTMVRKIGCYAAMKKKIYAMGGGSYGKLFESVECYDPRTQQWTAICPLKERRFGAVACGVAMELYVFGGVRSREDAQGSEMVTCKSEFYHDEFKRWIYLNDQNLCIPASSSFVYGAVPIGASIYVIGDLDTGTNYDYVREFKRSTGTWHHTKPLLPSDLRRTGCAALRIANCKLFRLQLQQGLFRIRVHSP [V82F] |

Variants of: B1
Settings: with uba1_rat Uba1, Q5U300
uba1_rat Uba1, Q5U300, sequence (Q5U300 whole entry): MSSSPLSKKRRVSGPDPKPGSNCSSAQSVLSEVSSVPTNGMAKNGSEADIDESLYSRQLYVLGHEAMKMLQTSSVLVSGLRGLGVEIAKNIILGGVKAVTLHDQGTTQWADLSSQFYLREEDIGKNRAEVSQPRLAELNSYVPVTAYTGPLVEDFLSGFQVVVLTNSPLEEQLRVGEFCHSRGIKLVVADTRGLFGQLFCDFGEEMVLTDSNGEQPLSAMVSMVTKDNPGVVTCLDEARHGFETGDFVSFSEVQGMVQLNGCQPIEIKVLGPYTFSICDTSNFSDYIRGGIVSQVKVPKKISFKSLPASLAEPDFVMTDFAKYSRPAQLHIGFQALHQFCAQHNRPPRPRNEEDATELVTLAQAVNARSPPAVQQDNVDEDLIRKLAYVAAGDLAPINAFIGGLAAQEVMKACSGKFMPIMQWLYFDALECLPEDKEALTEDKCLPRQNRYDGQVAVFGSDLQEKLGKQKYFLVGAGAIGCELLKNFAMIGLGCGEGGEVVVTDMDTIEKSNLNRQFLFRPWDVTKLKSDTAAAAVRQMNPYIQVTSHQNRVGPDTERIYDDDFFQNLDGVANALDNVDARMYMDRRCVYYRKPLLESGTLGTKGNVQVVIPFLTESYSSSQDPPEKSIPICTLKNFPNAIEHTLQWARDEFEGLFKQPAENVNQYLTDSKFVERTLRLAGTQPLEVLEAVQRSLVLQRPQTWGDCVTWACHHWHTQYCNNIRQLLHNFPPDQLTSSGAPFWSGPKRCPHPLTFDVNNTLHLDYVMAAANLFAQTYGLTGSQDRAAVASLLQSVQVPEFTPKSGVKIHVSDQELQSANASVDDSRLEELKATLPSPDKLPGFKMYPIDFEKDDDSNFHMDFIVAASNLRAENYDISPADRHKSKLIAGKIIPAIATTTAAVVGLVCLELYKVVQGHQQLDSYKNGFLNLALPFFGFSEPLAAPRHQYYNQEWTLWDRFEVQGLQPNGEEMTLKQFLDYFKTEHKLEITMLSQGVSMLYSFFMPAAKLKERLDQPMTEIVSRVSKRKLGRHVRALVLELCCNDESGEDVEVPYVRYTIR

| effect of a mutation on the interaction | Variant |
| --- | --- |
| decreasing interaction | MAEGSAVSDPQHAARLLRALSSFREESRFCDAHLVLDGEEIPVQKNILAAASPYIRTKLNYNPPKDDGSTYKIELEGISVMFMREILDYIFSGQIRLNEDTIQDVVQAADLLLLTDLKTLCCEFLEGCIAAENCIGIRDFALHYCLHHVHYLATEYLETHFRDVSSTEEFLELSPQKLKEVISLEKLNVGNERYVFEAVIRWIAHDTEIRKVHMKDVMSALWVSGLDSSYLREQMLNEPLVREIVKECSNIPLSQPQQGEAMLANFKPRGYSECIVTVGGEERVSRKPTAAMRCMCPLYDPNRQLWIELAPLSMPRINHGVLSAEGFLFVFGGQDENKQTLSSGEKYDPDANTWTALPPMNEARHNFGIVEIDGMLYILGGEDGEKELISMECYDIYSKTWTKQPDLTMVRKIGCYAAMKKKIYAMGGGSYGKLFESVECYDPRTQQWTAICPLKERRFGAVACGVAMELYVFGGVRSREDAQGSEMVTCKSEFYHDEFKRWIYLNDQNLCIPASSSFVYGAVPIGASIYVIGDLDTGTNYDYVREFKRSTGTWHHTKPLLPSDLRRTGCAALRIANCKLFRLQLQQGLFRIRVHSP [V82F] |
